Assay results as given in US20250243277A1 (AVACTA LIFE SCIENCES, published 2025).

Assays:
[1] = molecular target: T1, human PD-L1-Fc (R&D Systems) (human, UniProt Q9NZQ7 19-239); experiment: SPR (Biacore): huPD-L1-Fc captured on a Protein A sensor chip, HEK-expressed Affimer as analyte rising from 0.125 to 2 nM, 2000 s dissociation
T1 construct: Bought from R&D Systems; Biotinylated in-house for the phage selection; also called huPD-L1-Fc; human PD-L1-Fc antigen; not shown: Fc part of the bought fusion
T1 sequence (Q9NZQ7 19-239 limits assumed): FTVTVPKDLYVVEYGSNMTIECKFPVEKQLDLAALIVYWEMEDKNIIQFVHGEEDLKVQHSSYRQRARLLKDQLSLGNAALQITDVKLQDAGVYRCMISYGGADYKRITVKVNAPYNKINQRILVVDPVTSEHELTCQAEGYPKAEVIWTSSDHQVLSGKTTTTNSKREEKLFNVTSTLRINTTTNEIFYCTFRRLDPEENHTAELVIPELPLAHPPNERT
Description: (§1) Secreted AFFIMER® clones were purified from supernatant using Ni Sepharose Excel resin (Cytiva) as described in Example 2 and run-on SEC-HPLC to assess their purity and molecular weight (FIG. 11). BIACORE™ was run using a sensor chip Protein A (Cytiva) capturing huPD-L1-Fc (R&D System), and AFFIMER® clones were run in solution as analyte increasing from 0.125 to 2 nM titration and a dissociation time of 2000 seconds. Regeneration of the antigen captured on the chip was performed using a 10 mM glycine pH1.5 solution. […] Avidity was further shown in both the PD-L1 binding ELISA and the Promega cell-based assay, with the ILF dimer blocking the PD-L1:PD1 interaction more strongly than a mammalian produced monomer (FIGS. 13-14).

[2] = molecular target: T1, human PD-L1-Fc (R&D Systems); experiment: SPR (Biacore); huPD-L1-Fc captured on Protein A chip, Affimer as analyte 0.125 to 2 nM; ILF homodimer (avidity), huPD-L1-Fc captured on Protein A chip
Description: as §1

[3] = molecular target: T1, human PD-L1-Fc (R&D Systems); experiment: PD-L1 binding ELISA (direct binding, absorbance 450nm - 630nm rises with the Affimer concentration). Column head on the sheet reads 'IC50 nM' although the curve is a half-maximal binding curve; the text does not name the PD-L1 reagent on the plate
[4] = molecular target: T1, human PD-L1-Fc (R&D Systems); experiment: SPR (Biacore); huPD-L1-Fc captured on Protein A chip, Affimer as analyte 0.125 to 2 nM; monomer, huPD-L1-Fc captured on Protein A chip
Description: as §1

| koff [1] [s⁻¹] | kon [1] [M⁻¹ s⁻¹] | Kd [2] [nM] | IC50 [3] [nM] | Kd [4] [nM] | Binder |
| --- | --- | --- | --- | --- | --- |
| 4.56e-05 | 4.44e+06 | 0.0103 | 0.05 |  | Clone 80 ILF (designed binder, Two Clone 80 units in one chain joined by the rigid linker A(EAAAK)6; also called in-line fusion (ILF) homodimer; Dimer ILF format) MIPGGLSEAKPATPEIQEIVDKVKPQLEEKTGETYGKLEAVQYKTQVVRRKHFPQWPGTNYYIKVRAGDNKYMHLKVFKSLDLQPREVFQEDLVLTGYQVDKNKDDELTGFAEAAAKEAAAKEAAAKEAAAKEAAAKEAAAKMIPGGLSEAKPATPEIQEIVDKVKPQLEEKTGETYGKLEAVQYKTQVVRRKHFPQWPGTNYYIKVRAGDNKYMHLKVFKSLDLQPREVFQEDLVLTGYQVDKNKDDELTGF |
| 0.0014 | 2.58e+06 |  | 0.26 | 0.54 | Clone 80 monomer (mammalian, HEK-expressed) (designed binder, also called mammalian produced monomer; mammalian expressed AFFIMER Clone 80 monomer) MIPGGLSEAKPATPEIQEIVDKVKPQLEEKTGETYGKLEAVQYKTQVVRRKHFPQWPGTNYYIKVRAGDNKYMHLKVFKSLDLQPREVFQEDLVLTGYQVDKNKDDELTGF |
